Assay results as given in the supplement of paper PMC9112550, “Optimization of the antimicrobial peptide Bac7 by deep mutational scanning” (BMC Biology, 2022).

tested on: Escherichia coli TOP10; assay: shrunken log2 fold change of peptide-encoding DNA abundance (4.5 h post-induction vs induction); higher = less antimicrobial activity (less host growth inhibition); settings: time post-induction: 4.5 h; library: site-saturation at positions 5, 18, 19, 20
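Also: peptides expressed intracellularly from a pBAD plasmid library in pooled LB shake-flask culture, induced with 0.3% L-arabinose, DNA abundance read by NGS, three biological replicates, DESeq2 with apeglm shrinkage.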

Point of comparison: RRIRQRPPRLPRPRPRPSDDPRP, “shrunken log2 fold change” value -0.0143. Against it:
- RRIRKRPPRLPRPRPRPYVHPRP — lower, -0.431
- RRIRARPPRLPRPRPRPCFSPRP — within 0.2 log units, -0.137
- RRIRCRPPRLPRPRPRPFRWPRP — higher, 0.406
- RRIRQRPPRLPRPRPRPWKQPRP — within 0.2 log units, -0.08
- RRIRPRPPRLPRPRPRPWHIPRP — within 0.2 log units, -0.0921
- RRIRRRPPRLPRPRPRPDCWPRP — higher, 0.676
- RRIRQRPPRLPRPRPRPILQPRP — higher, 0.292
- RRIRTRPPRLPRPRPRPKRYPRP — within 0.2 log units, -0.154
- RRIRRRPPRLPRPRPRPPIHPRP — within 0.2 log units, -0.11
- RRIRIRPPRLPRPRPRPWALPRP — within 0.2 log units, -0.0173
- RRIRMRPPRLPRPRPRPSGGPRP — higher, 0.738
- RRIRGRPPRLPRPRPRPTFPPRP — higher, 0.347
- RRIRSRPPRLPRPRPRPPVAPRP — higher, 0.403
- RRIRWRPPRLPRPRPRPTPQPRP — higher, 1.63
- RRIRCRPPRLPRPRPRPFRDPRP — within 0.2 log units, -0.0732
- RRIRGRPPRLPRPRPRPYYPPRP — lower, -0.791
- RRIRSRPPRLPRPRPRPKQLPRP — within 0.2 log units, 0.0372
- RRIRMRPPRLPRPRPRPVHYPRP — within 0.2 log units, -0.0505
- RRIRWRPPRLPRPRPRPRFWPRP — higher, 0.455
- RRIRVRPPRLPRPRPRPAFIPRP — within 0.2 log units, 0.00175
- RRIRWRPPRLPRPRPRPEDLPRP — within 0.2 log units, -0.0249
- RRIRDRPPRLPRPRPRPYVLPRP — lower, -0.347
- RRIRLRPPRLPRPRPRPGPGPRP — higher, 0.279
- RRIRSRPPRLPRPRPRPQIVPRP — lower, -0.32
- RRIRCRPPRLPRPRPRPLDEPRP — within 0.2 log units, 0.151
- RRIRMRPPRLPRPRPRPPGKPRP — higher, 0.978
- RRIRMRPPRLPRPRPRPLSAPRP — higher, 1.19
- RRIRVRPPRLPRPRPRPPFMPRP — higher, 1.97
- RRIRCRPPRLPRPRPRPAQFPRP — within 0.2 log units, 0.0313
- RRIRTRPPRLPRPRPRPWCPPRP — within 0.2 log units, -0.139
- RRIRWRPPRLPRPRPRPFCMPRP — lower, -0.218
- RRIRHRPPRLPRPRPRPDAGPRP — the same, -0.0143
- RRIRKRPPRLPRPRPRPTMHPRP — higher, 0.455
- RRIRDRPPRLPRPRPRPVCNPRP — higher, 0.861
- RRIRNRPPRLPRPRPRPDIPPRP — lower, -0.588
- RRIRKRPPRLPRPRPRPQDIPRP — within 0.2 log units, -0.116
- RRIRCRPPRLPRPRPRPWQAPRP — higher, 0.204
- RRIRDRPPRLPRPRPRPKTDPRP — lower, -0.314
- RRIRIRPPRLPRPRPRPQMCPRP — within 0.2 log units, 0.0648
- RRIRRRPPRLPRPRPRPSNDPRP — within 0.2 log units, -0.162
- RRIRCRPPRLPRPRPRPGDAPRP — higher, 0.466
- RRIRMRPPRLPRPRPRPPRLPRP — higher, 1.06
- RRIRIRPPRLPRPRPRPKLPPRP — within 0.2 log units, 0.0199
- RRIRYRPPRLPRPRPRPLHIPRP — lower, -0.271
- RRIRPRPPRLPRPRPRPRISPRP — within 0.2 log units, -0.145
- RRIRARPPRLPRPRPRPTKFPRP — within 0.2 log units, 0.0943
- RRIRSRPPRLPRPRPRPTLGPRP — higher, 0.378
- RRIRCRPPRLPRPRPRPSVAPRP — lower, -0.276
- RRIRTRPPRLPRPRPRPFAEPRP — within 0.2 log units, 0.0116
- RRIRRRPPRLPRPRPRPSGMPRP — within 0.2 log units, -0.0586
- RRIRQRPPRLPRPRPRPGVTPRP — within 0.2 log units, 0.0644
- RRIRTRPPRLPRPRPRPRFDPRP — higher, 0.332
- RRIRIRPPRLPRPRPRPEGTPRP — within 0.2 log units, 0.0536
- RRIRCRPPRLPRPRPRPGDPPRP — within 0.2 log units, 0.132
- RRIRVRPPRLPRPRPRPRARPRP — higher, 0.737
- RRIRVRPPRLPRPRPRPPCQPRP — within 0.2 log units, 0.0844
- RRIRQRPPRLPRPRPRPHLVPRP — within 0.2 log units, 0.00244
- RRIRKRPPRLPRPRPRPNPVPRP — within 0.2 log units, 0.0163
- RRIRGRPPRLPRPRPRPVFPPRP — higher, 0.36
- RRIRWRPPRLPRPRPRPPRGPRP — higher, 0.584
- RRIRPRPPRLPRPRPRPEPRPRP — higher, 1.05
- RRIRTRPPRLPRPRPRPGCWPRP — higher, 0.453
- RRIRQRPPRLPRPRPRPKYLPRP — within 0.2 log units, -0.0386
- RRIRYRPPRLPRPRPRPFFTPRP — lower, -0.675
- RRIRKRPPRLPRPRPRPFQAPRP — within 0.2 log units, 0.0945
- RRIRCRPPRLPRPRPRPLQMPRP — within 0.2 log units, -0.182
- RRIRSRPPRLPRPRPRPFDFPRP — lower, -0.241
- RRIRPRPPRLPRPRPRPFVVPRP — lower, -0.233
- RRIRIRPPRLPRPRPRPLDCPRP — lower, -0.267
- RRIRNRPPRLPRPRPRPPIVPRP — within 0.2 log units, -0.154
- RRIRNRPPRLPRPRPRPHSIPRP — within 0.2 log units, -0.209
- RRIRIRPPRLPRPRPRPPYYPRP — lower, -0.827
- RRIRMRPPRLPRPRPRPLTMPRP — higher, 0.24
- RRIRWRPPRLPRPRPRPLILPRP — lower, -0.604
- RRIRSRPPRLPRPRPRPDSFPRP — within 0.2 log units, -0.0457
- RRIRARPPRLPRPRPRPDCEPRP — higher, 1
- RRIRHRPPRLPRPRPRPWRVPRP — within 0.2 log units, 0.0326
- RRIRFRPPRLPRPRPRPQKRPRP — higher, 0.297
- RRIRERPPRLPRPRPRPLNNPRP — lower, -0.705
- RRIRKRPPRLPRPRPRPQFKPRP — within 0.2 log units, -0.037
- RRIRWRPPRLPRPRPRPIMKPRP — within 0.2 log units, -0.0768
- RRIRIRPPRLPRPRPRPWEVPRP — within 0.2 log units, -0.00884
- RRIRVRPPRLPRPRPRPGCRPRP — higher, 0.5
- RRIRQRPPRLPRPRPRPKSIPRP — lower, -0.695
- RRIRGRPPRLPRPRPRPSPMPRP — higher, 0.474
- RRIRPRPPRLPRPRPRPIAHPRP — within 0.2 log units, 0.125
- RRIRFRPPRLPRPRPRPKENPRP — lower, -0.222
- RRIRTRPPRLPRPRPRPTVNPRP — lower, -0.217
- RRIRKRPPRLPRPRPRPNDVPRP — within 0.2 log units, 0.117
- RRIRYRPPRLPRPRPRPRMWPRP — within 0.2 log units, 0.0356
- RRIRIRPPRLPRPRPRPDLEPRP — within 0.2 log units, -0.0323
- RRIRTRPPRLPRPRPRPSRHPRP — lower, -0.481
- RRIRCRPPRLPRPRPRPQHQPRP — within 0.2 log units, -0.145
- RRIRTRPPRLPRPRPRPANWPRP — within 0.2 log units, 0.0703
- RRIRNRPPRLPRPRPRPGEDPRP — lower, -0.376
- RRIRIRPPRLPRPRPRPHAPPRP — higher, 0.2
- RRIRYRPPRLPRPRPRPYPSPRP — lower, -0.248
- RRIRGRPPRLPRPRPRPVLTPRP — higher, 0.834
- RRIRERPPRLPRPRPRPEAWPRP — within 0.2 log units, 0.0366
- RRIRKRPPRLPRPRPRPCWHPRP — within 0.2 log units, 0.00832
- RRIRNRPPRLPRPRPRPKLQPRP — within 0.2 log units, 0.114
- RRIRSRPPRLPRPRPRPQNSPRP — within 0.2 log units, -0.207
- RRIRYRPPRLPRPRPRPTGFPRP — within 0.2 log units, -0.0281
- RRIRRRPPRLPRPRPRPYENPRP — lower, -0.374
- RRIRIRPPRLPRPRPRPQNKPRP — lower, -0.668
- RRIRKRPPRLPRPRPRPSREPRP — higher, 0.555
- RRIRIRPPRLPRPRPRPEECPRP — within 0.2 log units, 0.0287
- RRIRFRPPRLPRPRPRPTEMPRP — within 0.2 log units, -0.105
- RRIRVRPPRLPRPRPRPVYQPRP — lower, -0.243
- RRIRMRPPRLPRPRPRPNCQPRP — higher, 0.356
- RRIRFRPPRLPRPRPRPTMTPRP — within 0.2 log units, -0.0114
- RRIRSRPPRLPRPRPRPWTTPRP — within 0.2 log units, 0.00749
- RRIRTRPPRLPRPRPRPRDEPRP — within 0.2 log units, 0.146
- RRIRTRPPRLPRPRPRPLIMPRP — lower, -0.718
- RRIRFRPPRLPRPRPRPDNQPRP — lower, -0.834
- RRIRRRPPRLPRPRPRPRMDPRP — higher, 2.27
- RRIRFRPPRLPRPRPRPNGNPRP — lower, -0.377
- RRIRTRPPRLPRPRPRPMWLPRP — within 0.2 log units, -0.0194
- RRIRQRPPRLPRPRPRPGQTPRP — within 0.2 log units, 0.00514
- RRIRKRPPRLPRPRPRPEEQPRP — higher, 3.17
- RRIRIRPPRLPRPRPRPGTFPRP — within 0.2 log units, -0.0863
- RRIRLRPPRLPRPRPRPKLSPRP — within 0.2 log units, 0.0605
- RRIRLRPPRLPRPRPRPLCRPRP — lower, -0.496
- RRIRTRPPRLPRPRPRPLYEPRP — lower, -0.774
- RRIRPRPPRLPRPRPRPYLPPRP — lower, -0.431
- RRIRARPPRLPRPRPRPLQCPRP — within 0.2 log units, 0.049
- RRIRRRPPRLPRPRPRPICTPRP — higher, 0.391
- RRIRERPPRLPRPRPRPVTFPRP — within 0.2 log units, -0.019
- RRIRRRPPRLPRPRPRPQYEPRP — within 0.2 log units, -0.00402
- RRIRDRPPRLPRPRPRPCVKPRP — within 0.2 log units, -0.161
- RRIRLRPPRLPRPRPRPWLLPRP — within 0.2 log units, -0.172
- RRIRARPPRLPRPRPRPNLGPRP — within 0.2 log units, 0.0306
- RRIRNRPPRLPRPRPRPSICPRP — lower, -0.328
- RRIRPRPPRLPRPRPRPFQIPRP — within 0.2 log units, -0.169
- RRIRQRPPRLPRPRPRPCWEPRP — within 0.2 log units, -0.126
- RRIRNRPPRLPRPRPRPQSPPRP — within 0.2 log units, -0.0298
- RRIRHRPPRLPRPRPRPGWFPRP — within 0.2 log units, 0.0663
- RRIRSRPPRLPRPRPRPDDVPRP — within 0.2 log units, 0.14
- RRIRTRPPRLPRPRPRPFQAPRP — within 0.2 log units, -0.0372
- RRIRYRPPRLPRPRPRPCAIPRP — within 0.2 log units, -0.0633
- RRIRHRPPRLPRPRPRPPKMPRP — within 0.2 log units, -0.0472
- RRIRKRPPRLPRPRPRPSHTPRP — within 0.2 log units, -0.0409
- RRIRARPPRLPRPRPRPTTWPRP — higher, 0.423
- RRIRIRPPRLPRPRPRPNSTPRP — lower, -0.722
- RRIRDRPPRLPRPRPRPQKLPRP — lower, -0.307
- RRIRFRPPRLPRPRPRPFNTPRP — lower, -0.688
- RRIRIRPPRLPRPRPRPHSQPRP — lower, -0.824
- RRIRGRPPRLPRPRPRPKQTPRP — within 0.2 log units, 0.175
- RRIRPRPPRLPRPRPRPPDGPRP — within 0.2 log units, 0.067
